Measured values reported in US20240043515A1 (Chugai, published 2024).
Numbering of substitutions follows the chain as printed. Names and notes keep the numbering of the source.

T1: human FcγRIIa H extracellular domain (human, UniProt P12318 34-217)
T1 construct: extracellular domain; also called hFcγR IIa H; FcγRIIa allotype H131
T1 sequence (looked up): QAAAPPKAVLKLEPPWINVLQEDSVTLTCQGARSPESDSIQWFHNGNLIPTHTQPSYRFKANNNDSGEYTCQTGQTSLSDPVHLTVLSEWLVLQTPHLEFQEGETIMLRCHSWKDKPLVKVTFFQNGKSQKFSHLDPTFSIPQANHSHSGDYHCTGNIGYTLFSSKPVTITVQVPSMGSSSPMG

T2: human FcγRIIb extracellular domain (human, UniProt P31994 43-217)
T2 construct: extracellular domain; also called hFcγR IIb
T2 sequence (looked up): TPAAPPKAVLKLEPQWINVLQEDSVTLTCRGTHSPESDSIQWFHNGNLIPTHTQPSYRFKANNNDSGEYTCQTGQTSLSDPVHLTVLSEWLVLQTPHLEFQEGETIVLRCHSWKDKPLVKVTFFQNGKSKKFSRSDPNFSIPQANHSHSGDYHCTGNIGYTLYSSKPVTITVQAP

T3: human FcγRIIa R extracellular domain (human, UniProt P12318 34-217)
T3 construct: extracellular domain; also called hFcγR IIa R; FcγRIIa allotype R131
T3 sequence (looked up): T1 sequence (looked up) with H134R

T4: hFcγRIIaH on Jurkat effector cells (human, UniProt P12318 34-317)
T4 sequence (looked up): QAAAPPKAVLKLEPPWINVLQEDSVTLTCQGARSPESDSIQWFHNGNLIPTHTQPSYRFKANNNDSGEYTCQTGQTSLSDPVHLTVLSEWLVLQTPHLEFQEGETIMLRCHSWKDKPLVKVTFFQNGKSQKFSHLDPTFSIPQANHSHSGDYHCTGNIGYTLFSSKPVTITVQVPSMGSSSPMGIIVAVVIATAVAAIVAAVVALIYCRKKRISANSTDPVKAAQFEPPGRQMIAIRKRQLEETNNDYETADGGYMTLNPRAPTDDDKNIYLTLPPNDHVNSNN

B1: EGL-G1d (H240-G1d/L73-k0) (antibody, human IgG1, kappa)
heavy: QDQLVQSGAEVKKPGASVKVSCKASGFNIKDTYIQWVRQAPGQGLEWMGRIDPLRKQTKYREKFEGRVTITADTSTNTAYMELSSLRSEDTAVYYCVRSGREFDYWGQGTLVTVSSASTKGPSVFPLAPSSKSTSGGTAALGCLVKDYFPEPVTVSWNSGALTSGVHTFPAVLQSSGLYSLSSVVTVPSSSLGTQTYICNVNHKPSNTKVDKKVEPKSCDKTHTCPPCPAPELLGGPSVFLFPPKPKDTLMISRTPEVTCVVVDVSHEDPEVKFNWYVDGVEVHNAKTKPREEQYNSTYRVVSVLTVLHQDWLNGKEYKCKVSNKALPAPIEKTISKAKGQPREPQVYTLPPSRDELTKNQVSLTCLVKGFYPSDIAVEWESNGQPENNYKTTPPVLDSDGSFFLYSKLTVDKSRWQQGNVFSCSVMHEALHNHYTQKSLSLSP
light: DIQMTQSPSSLSASVGDRVTITCRASQDIHKYIAWYQQKPGQAPRLLIQYTSTLQPGVPSRFSGSGSGTDYTFTISSLQPEDIATYYCLQYEQLRTFGGGTKVEIKRTVAAPSVFIFPPSDEQLKSGTASVVCLLNNFYPREAKVQWKVDNALQSGNSQESVTEQDSKDSTYSLSSTLTLSKADYEKHKVYACEVTHQGLSSPVTKSFNRGEC
notes: Anti-human Epiregulin antibody with a human IgG1 constant region lacking C-terminal Gly-Lys (G1d); also called Gld; anti-hEREG control antibody
B2: EGL-SDALIE (H240-Kn032/L73-k0//H240-H1032/L73-k0) (antibody, human IgG1, kappa)
heavy 1: QDQLVQSGAEVKKPGASVKVSCKASGFNIKDTYIQWVRQAPGQGLEWMGRIDPLRKQTKYREKFEGRVTITADTSTNTAYMELSSLRSEDTAVYYCVRSGREFDYWGQGTLVTVSSASTKGPSVFPLAPSSKSTSGGTAALGCLVKDYFPEPVTVSWNSGALTSGVHTFPAVLQSSGLYSLSSVVTVPSSSLGTQTYICNVNHKPSNTKVDKKVEPKSCDKTHTCPPCPAPELLGGPDVFLFPPKPKDTLMISRTPEVTCVVVDVSHEDPEVKFNWYVDGVEVHNAKTKPREEQYNSTYRVVSVLTVLHQDWLNGKEYKCKVSNKALPLPEEKTISKAKGQPREPQVCTLPPSRDELTKNQVSLWCLVKGFYPSDIAVEWESNGQPENNYKTTPPVLDSDGSFFLYSKLTVDKSRWQQGNVFSCSVMHEALHNHYTQKSLSLSP
heavy 2: B2 heavy 1 with C348Y, D355C, W365S, L367A, Y406V
light: B1 light
notes: S239D/A330L/I332E in both heavy chains; Kn032 with Y349C/T366W, H1032 with D356C/T366S/L368A/Y407V
B3: EGL-ART11 (H240-Kn496/L73-k0//H240-H1516/L73-k0) (antibody, human IgG1, kappa)
heavy 1: QDQLVQSGAEVKKPGASVKVSCKASGFNIKDTYIQWVRQAPGQGLEWMGRIDPLRKQTKYREKFEGRVTITADTSTNTAYMELSSLRSEDTAVYYCVRSGREFDYWGQGTLVTVSSASTKGPSVFPLAPSSKSTSGGTAALGCLVKDYFPEPVTVSWNSGALTSGVHTFPAVLQSSGLYSLSSVVTVPSSSLGTQTYICNVNHKPSNTKVDKKVEPKSCDKTHTCPPCPAPEFQWGPMVFLFPPKPKDVLMISRTPEVTCVVVDVSDEEPEVKFNWYVDGVEVHNAKTKPREEQYNATYRVVSVLPVLHQDWLNGKEYKCKVSNKALPAPIEKTISKAKGQPREPQVCTLPPSRDELTKNQVSLWCLVKGFYPSDIAVEWESNGQPENNYKTTPPVLDSDGSFFLYSKLTVDKSRWQQGNVFSCSVMHEALHNHYTQKSLSLSP
heavy 2: QDQLVQSGAEVKKPGASVKVSCKASGFNIKDTYIQWVRQAPGQGLEWMGRIDPLRKQTKYREKFEGRVTITADTSTNTAYMELSSLRSEDTAVYYCVRSGREFDYWGQGTLVTVSSASTKGPSVFPLAPSSKSTSGGTAALGCLVKDYFPEPVTVSWNSGALTSGVHTFPAVLQSSGLYSLSSVVTVPSSSLGTQTYICNVNHKPSNTKVDKKVEPKSCDKTHTCPPCPAPELLGGPSVFLFPPKPKDVLMISRTPEVTCVVVDVSHEEPEVKFNWYVDGVEVHNAKTKPREEQYNATYRVVSVLPVLHQDWLNGKEYKCKVSNDALPAPIEETISKAKGQPREPQVYTLPPSRCELTKNQVSLSCAVKGFYPSDIAVEWESNGQPENNYKTTPPVLDSDGSFFLVSKLTVDKSRWQQGNVFSCSVMHEALHNHYTQKSLSLSP
light: B1 light
notes: Kn496: L234F/L235Q/G236W/S239M/T250V/H268D/D270E/S298A/T307P + Y349C/T366W; H1516: T250V/D270E/S298A/T307P/K326D/K334E + D356C/T366S/L368A/Y407V
B4: EGL-ART1 (H240-Kn125/L73-k0//H240-H1076/L73-k0) (antibody, human IgG1, kappa)
heavy 1: B3 heavy 1 with F233Y, V249T, P306T
heavy 2: B3 heavy 2 with V249T, A297S, P306T, A329M
light: B1 light
notes: Heterodimeric Fc variant of the anti-human Epiregulin IgG1; Kn125: L234Y/L235Q/G236W/S239M/H268D/D270E/S298A + Y349C/T366W; H1076: D270E/K326D/A330M/K334E + D356C/T366S/L368A/Y407V (EU numbering); also called Kn125/H1076
B5: EGL-ART2 (H240-Kn120/L73-k0//H240-H1068/L73-k0) (antibody, human IgG1, kappa)
heavy 1: B3 heavy 1 with F233Y, Q234Y, V249T, E269D, P306T, A326D
heavy 2: B3 heavy 2 with V249T, A297S, P306T, A329K
light: B1 light
notes: Kn120: L234Y/L235Y/G236W/S239M/H268D/S298A/A327D + Y349C/T366W; also called Kn120/H1068
B6: EGL-GASDALIE (H240-GASDALIE/L73-k0) (antibody, human IgG1, kappa)
heavy: B2 heavy 1 with G235A, C348Y, W365T
light: B1 light

Tests used:
[1] = target: T1, human FcγRIIa H extracellular domain; assay: SPR; KD of G1d divided by KD of this antibody
Experimental: (§1) The extracellular domains of FcγRs were produced by the method described in WO2014104165. The interaction between the produced antibodies and human FcγRs was analyzed using Biacore 8K+ by the method below. For the running buffer, 50 mM Na-Phosphate, 150 mM NaCl, and 0.05% Tween20 (pH 7.4) was used, and measurement was performed at 25° C. The sensor chip used was a Series S SA chip (GE Healthcare) onto which CaptureSelect Human Fab-kappa Kinetics Biotin Conjugate (Thermo Fisher Scientific) was immobilized. An antibody of interest was captured onto this chip, and each FcγR diluted with the running buffer was allowed to interact with it. The chip was regenerated using 10 mM Glycine-HCl (pH 1.5), and repeatedly used to capture antibodies and perform measurement. The dissociation constants KD (mol/L) of each antibody for FcγRs were calculated using Biacore Insight Evaluation Software, with a steady state affinity model for the dissociation constant for FcγRIIb and a 1:1 Langmuir binding model for the dissociation constants for the other FcγRs (Table 2).

[2] = target: T2, human FcγRIIb extracellular domain; assay: SPR; KD of G1d divided by KD of this antibody
Experimental: as §1

[3] = target: T3, human FcγRIIa R extracellular domain; assay: SPR; KD of G1d divided by KD of this antibody
Experimental: as §1

[4] = target: T5, human FcγRIa extracellular domain (human, UniProt P12314 16-292); assay: SPR; KD of G1d divided by KD of this antibody
T5 construct: extracellular domain; also called hFcγR Ia
Experimental: as §1

[5] = target: T6, human FcγRIIIa F extracellular domain (human, UniProt P08637 17-208); assay: SPR; KD of G1d divided by KD of this antibody
T6 construct: extracellular domain; also called hFcγR IIIa F; FcγRIIIa allotype F158
Experimental: as §1

[6] = target: T1, human FcγRIIa H extracellular domain; assay: SPR; KD for hFcγRIIb divided by KD for this FcγR
Experimental: as §1

[7] = target: T3, human FcγRIIa R extracellular domain; assay: SPR; KD for hFcγRIIb divided by KD for this FcγR
Experimental: as §1

[8] = target: T6, human FcγRIIIa F extracellular domain; assay: SPR; KD for hFcγRIIb divided by KD for this FcγR
Experimental: as §1

[9] = target: hFcγRIIIaV on Jurkat effector cells (human, UniProt P08637 17-254); assay: cell-based or functional assay
[10] = target: T7, human FcγRIIIa V extracellular domain (human, UniProt P08637 17-208); assay: SPR; KD of G1d divided by KD of this antibody
T7 construct: extracellular domain; also called hFcγR IIIa V; FcγRIIIa allotype V158
Experimental: as §1

[11] = target: T7, human FcγRIIIa V extracellular domain; assay: SPR; KD for hFcγRIIb divided by KD for this FcγR
Experimental: as §1

[12] = target: T4, hFcγRIIaH on Jurkat effector cells; assay: cell-based or functional assay

Sequence of hFcγRIIIaV on Jurkat effector cells (P08637 17-254, form in doubt): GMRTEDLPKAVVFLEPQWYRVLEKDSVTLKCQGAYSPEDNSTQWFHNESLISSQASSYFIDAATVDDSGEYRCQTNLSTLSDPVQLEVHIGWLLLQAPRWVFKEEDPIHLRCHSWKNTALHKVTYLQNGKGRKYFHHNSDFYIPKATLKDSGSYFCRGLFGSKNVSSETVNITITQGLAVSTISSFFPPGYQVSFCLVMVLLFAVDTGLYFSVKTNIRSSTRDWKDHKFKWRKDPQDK
T7 sequence (P08637 17-208 F176V): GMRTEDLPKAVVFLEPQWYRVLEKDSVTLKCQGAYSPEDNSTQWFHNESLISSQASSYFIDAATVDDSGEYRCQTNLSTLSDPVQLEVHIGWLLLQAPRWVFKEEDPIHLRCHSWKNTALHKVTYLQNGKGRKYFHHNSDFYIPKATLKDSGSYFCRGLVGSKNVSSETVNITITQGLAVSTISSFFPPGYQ
T5 sequence (P12314 16-292): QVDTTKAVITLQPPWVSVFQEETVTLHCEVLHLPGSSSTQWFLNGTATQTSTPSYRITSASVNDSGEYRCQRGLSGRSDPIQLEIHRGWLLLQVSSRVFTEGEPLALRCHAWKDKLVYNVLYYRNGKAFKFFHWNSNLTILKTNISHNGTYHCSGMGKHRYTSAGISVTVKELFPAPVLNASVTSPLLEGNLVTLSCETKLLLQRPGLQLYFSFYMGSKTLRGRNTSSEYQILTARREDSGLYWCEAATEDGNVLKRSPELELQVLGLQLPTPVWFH
T6 sequence (P08637 17-208): as the sequence (P08637 17-208 F176V) above, with V160F counted along it

Binder | Relative value to KD between G1d and hFcgRs [1] | Relative value to KD between G1d and hFcgRs [2] | Relative value to KD between G1d and hFcgRs [3] | Relative value to KD between G1d and hFcgRs [4] | Relative value to KD between G1d and hFcgRs [5] | A/I ratio (KD for FcγRIIb divided by KD for each FcγR) [6] | A/I ratio (KD for FcγRIIb divided by KD for each FcγR) [7] | A/I ratio (KD for FcγRIIb divided by KD for each FcγR) [8] | EC50 of reporter gene induction (ADCC Reporter Bioassay, Hepa1-6/hEREG target cells) [9] | Relative value to KD between G1d and hFcgRs [10] | A/I ratio (KD for FcγRIIb divided by KD for each FcγR) [11] | EC50 of reporter gene induction (ADCP Reporter Bioassay, Hepa1-6/hEREG target cells) [12]
B1 | 1 times | 1 times | 1 times | 1 times | 1 times | 8.9 ratio | 6.1 ratio | 3.4 ratio | 0.0463 µg/mL | – | – | –
B2 | 1 times | 3.9 times | 1.8 times | 54.3 times | 113 times | 2.2 ratio | 2.8 ratio | 98.7 ratio | 0.00178 µg/mL | 36.8 times | 266 ratio | –
B3 | 4.9 times | 0.7 times | 1.3 times | 2.4 times | 141 times | 63.3 ratio | 11.5 ratio | 694 ratio | 0.000413 µg/mL | 97.5 times | 3970 ratio | 0.0367 µg/mL
B4 | 4.3 times | 0.8 times | 1.6 times | 3 times | 1170 times | 47.4 ratio | 12.4 ratio | 4950 ratio | 0.000716 µg/mL | 323 times | 11300 ratio | 0.0353 µg/mL
B5 | 14.7 times | 22.8 times | 49 times | 3.4 times | 460 times | 5.8 ratio | 13 ratio | 68.4 ratio | 0.00135 µg/mL | 215 times | 264 ratio | 0.0218 µg/mL
B6 | 6.9 times | 3.8 times | 10.3 times | 21.3 times | 99.1 times | 16.5 ratio | 16.5 ratio | 89.3 ratio | 0.00208 µg/mL | – | – | 0.0324 µg/mL
